# Where a chain is given by its changes, count along the chain named. In names and notes the source's numbering stands.
# T1: KAR (Homo sapiens, UniProt Q53GQ0)
# T1 construct: gene HSD17B12; N-terminal 3xFLAG, kept; HEK 293T expressed; anti-FLAG purified, co-reconstituted with ELOVL6 in POPC proteoliposomes; 36 kDa and faint N-glycosylated 39 kDa
# T1 sequence (Q53GQ0 1-312): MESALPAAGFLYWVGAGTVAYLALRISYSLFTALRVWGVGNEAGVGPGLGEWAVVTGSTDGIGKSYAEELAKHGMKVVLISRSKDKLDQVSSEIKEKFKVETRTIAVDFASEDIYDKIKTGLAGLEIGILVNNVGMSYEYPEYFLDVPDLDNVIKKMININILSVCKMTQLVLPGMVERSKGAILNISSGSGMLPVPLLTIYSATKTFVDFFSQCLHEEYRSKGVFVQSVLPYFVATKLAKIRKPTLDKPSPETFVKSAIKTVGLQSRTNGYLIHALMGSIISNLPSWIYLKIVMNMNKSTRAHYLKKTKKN
# T1 sequence (Q9H5J4 1-265 partner): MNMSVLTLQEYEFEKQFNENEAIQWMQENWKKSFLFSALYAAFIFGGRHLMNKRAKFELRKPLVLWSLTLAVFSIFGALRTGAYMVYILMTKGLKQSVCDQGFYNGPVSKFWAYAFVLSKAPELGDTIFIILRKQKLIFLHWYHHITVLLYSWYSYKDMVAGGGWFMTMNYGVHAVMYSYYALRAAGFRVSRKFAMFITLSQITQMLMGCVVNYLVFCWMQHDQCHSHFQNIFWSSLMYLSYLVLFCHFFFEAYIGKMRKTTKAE
# T2: 3xFLAG-ELOVL6 (fatty acid elongase ELOVL6) (human) (UniProt Q9H5J4)
# T2 sequence: T1 sequence (Q9H5J4 1-265 partner)
# B1: ELOVL6 (Homo sapiens) (protein)
# chain: T1 sequence (Q9H5J4 1-265 partner)
# notes: N-terminal 3xFLAG, kept; HEK 293T expressed; Triton X-100 solubilized, anti-FLAG purified, reconstituted in POPC proteoliposomes; 29 kDa and N-glycosylated 32 kDa
# B2: 3xFLAG-KAR (3-ketoacyl-CoA reductase KAR), wild type (enzyme)
# chain: T1 sequence (Q53GQ0 1-312)
# B3: 3xFLAG-KAR S189A (enzyme)
# chain: T1 sequence (Q53GQ0 1-312) with S189A
# What was measured:
# KAR = target: T1, KAR; test: coupled elongation with ELOVL6, […]malonyl-CoA, TLC; format: biochemical; conditions: 1 mM NADPH; co-reconstituted ELOVL6; 8 µM C16:0-CoA; 27.3 µM [14C]malonyl-CoA; pH 6.8; 37 °C; 90 min
# purified protein [1] = substrate: CC(C)(COP(=O)(O)OP(=O)(O)OC[C@H]1O[C@@H](n2cnc3c(N)ncnc32)[C@H](O)[C@@H]1OP(=O)(O)O)[C@@H](O)C(=O)NCCC(=O)NCCSC(=O)CC(=O)O; test: purified protein; format: biochemical, Homo sapiens; conditions: 8 µM C16:0-CoA, proteoliposomes, pH 6.8, 37 °C, 90 min, ELOVL6 alone, labelled compound
# purified protein [2] = substrate: CCCCCCCCCCCCCCCC(=O)SCCNC(=O)CCNC(=O)[C@H](O)C(C)(C)COP(=O)(O)OP(=O)(O)OC[C@H]1O[C@@H](n2cnc3c(N)ncnc32)[C@H](O)[C@@H]1OP(=O)(O)O; test: purified protein; format: biochemical, Homo sapiens; conditions: 27.3 µM [14C]malonyl-CoA, proteoliposomes, pH 6.8, 37 °C, 90 min, ELOVL6 alone
# [3] = target: T2, 3xFLAG-ELOVL6 (fatty acid elongase ELOVL6) (human)
# [4] = target: T2, 3xFLAG-ELOVL6 (fatty acid elongase ELOVL6) (human); remark: listed apart in the source
molecule,measurement,setting,value
NC(=O)C1=CN([C@@H]2O[C@H](COP(=O)(O)OP(=O)(O)OC[C@H]3O[C@@H](n4cnc5c(N)ncnc54)[C@H](OP(=O)(O)O)[C@@H]3O)[C@@H](O)[C@H]2O)C=CC1 [NADPH],"coupled elongation with ELOVL6, [14C]malonyl-CoA, TLC",KAR,caused production of 3-hydroxyacyl-CoA with a large increase in product levels
B1,Km,purified protein [1],6.46 µM
same,Km,purified protein [2],1.22 µM
B2,"in vitro FA elongation assay, purified ELOVL6 and KAR co-reconstituted into proteoliposomes, without NADPH: 3-ketoacyl-CoA levels compared to ELOVL6 alone",[3],3 fold
same,"in vitro FA elongation assay, purified ELOVL6 and wild type KAR in the same proteoliposomes, with 1 mM NADPH: product levels compared to ELOVL6 alone",[3],8 fold
B3,"in vitro FA elongation assay, purified ELOVL6 and KAR S189A co-reconstituted into proteoliposomes, with and without 1 mM NADPH: ELOVL6 activity compared to ELOVL6 alone",[4],3 fold

# Source: PMC4086937, “Two Modes of Regulation of the Fatty Acid Elongase ELOVL6 by the 3-Ketoacyl-CoA Reductase KAR in the Fatty Acid Elongation Cycle” (PLoS ONE, 2014)
